Reference: patent US20210032343A1

How the values were obtained:
HER2 (human) = HER2 (human) (UniProt P04626); assay: ELISA
PD-1 (human) = PD-1 (human) (UniProt Q15116); assay: competition ELISA; blocking PD-1/PD-L2
PD-1 (human), sequence (Q15116 25-167): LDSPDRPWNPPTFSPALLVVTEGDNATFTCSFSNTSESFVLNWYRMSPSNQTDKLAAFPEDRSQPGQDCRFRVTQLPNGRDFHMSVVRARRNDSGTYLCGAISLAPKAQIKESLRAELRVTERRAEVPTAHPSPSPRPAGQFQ

EC50 (HER2 (human)): 0.12 nM
IC50 (PD-1 (human)): > 20 nM
Substance: HER2
